Experimental data published in patent US20050042631A1 (US Dept. of Health and Human Services, published 2005).

Target: T1, GST-K-p52 (human, UniProt O75475 1-325, 32P-labeled by HMK where used as Farwestern probe)
T1 construct: The Nru I-EcoR V fragment of p52 cDNA was put in pGEX-2T(K); also called GST-p52; p52 probe; not shown: glutathione-S-transferase from the pGEX-2T(K) vector; heart muscle kinase (K) site and vector linker
Test: Farwestern blot with 32P-labeled GST-K-p52

T1 sequence (O75475 other isoform, or with tags, fused parts or gaps): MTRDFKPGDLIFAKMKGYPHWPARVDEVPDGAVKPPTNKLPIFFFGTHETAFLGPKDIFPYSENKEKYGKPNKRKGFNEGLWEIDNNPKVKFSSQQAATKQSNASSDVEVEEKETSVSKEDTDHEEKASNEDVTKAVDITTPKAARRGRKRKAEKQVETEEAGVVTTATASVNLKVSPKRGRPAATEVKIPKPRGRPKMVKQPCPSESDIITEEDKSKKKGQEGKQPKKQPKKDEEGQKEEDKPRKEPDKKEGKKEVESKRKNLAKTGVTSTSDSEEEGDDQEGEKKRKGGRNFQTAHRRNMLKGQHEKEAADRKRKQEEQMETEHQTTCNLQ

B1: GST-RS (GST-fused RS domain of ASF/SF2) (other, UniProt Q07955 198-248, looked up)
chain: RSPSYGRSRSRSRSRSRSRSRSNSRSRSYSPRRSRGSPRYSPRHSRSRSRT
notes: domain: RS domain; not shown: glutathione-S-transferase
- binding result: no binding
